Experimental findings from paper PMC9352680, “A comprehensive thermodynamic model for RNA binding by the Saccharomyces cerevisiae Pumilio protein PUF4” are described below.

The data set concerns the target T1, PUF4 RNA-binding domain (Saccharomyces cerevisiae, UniProt P25339 537-888).
T1 sequence: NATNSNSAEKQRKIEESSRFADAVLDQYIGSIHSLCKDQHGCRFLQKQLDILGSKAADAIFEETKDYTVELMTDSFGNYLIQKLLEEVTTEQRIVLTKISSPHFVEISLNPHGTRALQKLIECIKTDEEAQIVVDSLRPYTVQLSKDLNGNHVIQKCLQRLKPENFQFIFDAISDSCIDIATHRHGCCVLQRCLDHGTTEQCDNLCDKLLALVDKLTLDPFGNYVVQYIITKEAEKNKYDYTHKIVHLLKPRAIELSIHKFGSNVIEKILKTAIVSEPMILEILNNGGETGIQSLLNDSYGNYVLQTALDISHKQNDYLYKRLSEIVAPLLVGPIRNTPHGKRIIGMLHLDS
The experiment in a line: Mg; RNA-MaP; 20 mM Na-HEPES pH 7.4, 30 mM KOAc, 0.75 mM MgCl2, 0.1% Tween-20, 5% glycerol, 0.1 mg/mL BSA, 2 mM DTT; 25 C; 0.0125-409.6 nM protein. Particulars: tags: N-His6-TEV cleaved; C-SNAP kept, Cy3B-labelled; label: tethered on chip by stalled RNA polymerase.

UCUCUUUCUACACUAUUAUUUCUCUU (ssRNA) [Id_iii_S1_P4E.7_K4.3_C4.3_H4.3_A4.1_F4.1_T4.2_[G10T]] registered a Kd above 2300 nM. Under UCUCUUUCUUAUAUAUUACUUCUCUU (ssRNA) [Id_iii_S1_P4E.6_K4.2_C4.3_H4.2_A4.1_F4.1_T4.2_[G10C]] stands 15.9 nM; under UCUCUUUCAUAUAUAUAUAUCUCUU (ssRNA) [Id_iii_S1_P3E.6_K3.2_C3.3_[T-1A]_H3.2_A3.1_F3.1_T3.2], 592 nM; under UCUCUUUCUUAUAUAUUAAUUCUCUU (ssRNA) [Id_iii_S1_P4E.6_K4.2_C4.3_H4.2_A4.1_F4.1_T4.2_[G10A]], 18.1 nM. Under UCUCUUUGUCUCAUUAUCUCUU (ssRNA) [Ib_S1_P5E.1_K5.1_C5.1_H5.1_[A4C]_A5.1_[T6C]_F5.1_T5.1] stands 35.9 nM. Under UCUCUUUCUUGUAUAUUACUUCUCUU (ssRNA) [Id_iii_S1_P4E.5_K4.1_C4.3_H4.1_A4.1_F4.1_T4.2_[G10C]] stands 1.02 nM.

UCUCUUUCUUAUAUAUAUGUCUCUU (ssRNA) [Id_iii_S1_P3E.6_K3.2_C3.3_H3.2_A3.1_F3.1_T3.2_[A10G]] came in with a Kd of 755 nM. Under UCUCUUUCUACACUAUACAUCUCUU (ssRNA) [Id_iii_S1_P3E.7_K3.3_C3.3_H3.3_A3.1_F3.1_T3.2_[T9C]] stands 2260 nM; under UCUCUUUGUUGUAUUUUAGUUCUCUU (ssRNA) [Id_iii_S1_P4E.8_K4.4_C4.3_[C-2G]_H4.1_A4.2_F4.1_T4.2], 2.23 nM; under UCUCUUUCGUGUAUAUUAGUUCUCUU (ssRNA) [Id_iii_S1_P4E.5_K4.1_C4.3_[T-1G]_H4.1_A4.1_F4.1_T4.2], 0.46 nM. Under UCUCUUUCUACACUAUUAAUUCUCUU (ssRNA) [Id_iii_S1_P4E.7_K4.3_C4.3_H4.3_A4.1_F4.1_T4.2_[G10A]] stands above 2300 nM; under UCUCUUUCUUAUAUAUACAUCUCUU (ssRNA) [Id_iii_S1_P3E.6_K3.2_C3.3_H3.2_A3.1_F3.1_T3.2_[T9C]], 972 nM. Under UCUCUUUUUUGUAUAUUAGUUCUCUU (ssRNA) [Id_iii_S1_P4E.5_K4.1_C4.3_[C-2T]_H4.1_A4.1_F4.1_T4.2] stands 0.395 nM; under UCUCUUUGUACACUAUUAGUUCUCUU (ssRNA) [Id_iii_S1_P4E.7_K4.3_C4.3_[C-2G]_H4.3_A4.1_F4.1_T4.2], 1.04 nM. Molecule UCUCUUUUUUAUAUAUUAGUUCUCUU (ssRNA) [Id_iii_S1_P4E.6_K4.2_C4.3_[C-2T]_H4.2_A4.1_F4.1_T4.2] registered a Kd of 11 nM.

The molecule UCUCUUUUUUGUAUUUUAGUUCUCUU (ssRNA) [Id_iii_S1_P4E.8_K4.4_C4.3_[C-2T]_H4.1_A4.2_F4.1_T4.2] registered a dissociation constant Kd of 1.81 nM. UCUCUUUAUUGUAUAUUAGUUCUCUU (ssRNA) [Id_iii_S1_P4E.5_K4.1_C4.3_[C-2A]_H4.1_A4.1_F4.1_T4.2] had a dissociation constant (Kd) of 0.362 nM.

In turn, UCUCUUUCUUGUAUUUUAUUUCUCUU (ssRNA) [Id_iii_S1_P4E.8_K4.4_C4.3_H4.1_A4.2_F4.1_T4.2_[G10T]] gave a dissociation constant Kd of 2.43 nM. UCUCUUUCUUGUAAAUAAAUCUCUU (ssRNA) [Id_iii_S1_P3E.8_K3.4_C3.3_H3.1_A3.2_F3.1_T3.2_[T9A]] gave a Kd of 40.2 nM. To UCUCUUUCGUGUAUUUUAGUUCUCUU (ssRNA) [Id_iii_S1_P4E.8_K4.4_C4.3_[T-1G]_H4.1_A4.2_F4.1_T4.2] belongs 1.23 nM.

Molecule UCUCUUUUUACACUAUAUAUCUCUU (ssRNA) [Id_iii_S1_P3E.7_K3.3_C3.3_[C-2T]_H3.3_A3.1_F3.1_T3.2] showed a Kd of 2050 nM. Under UCUCUUUAUACACUAUUAGUUCUCUU (ssRNA) [Id_iii_S1_P4E.7_K4.3_C4.3_[C-2A]_H4.3_A4.1_F4.1_T4.2] stands 39.2 nM. To UCUCUUUGUUGUAUAUUAGUUCUCUU (ssRNA) [Id_iii_S1_P4E.5_K4.1_C4.3_[C-2G]_H4.1_A4.1_F4.1_T4.2] belongs 0.332 nM; to UCUCUUUCCUGUAAAUAUAUCUCUU (ssRNA) [Id_iii_S1_P3E.8_K3.4_C3.3_[T-1C]_H3.1_A3.2_F3.1_T3.2], 11.1 nM; to UCUCUUUCUUGUAAAUAUCUCUCUU (ssRNA) [Id_iii_S1_P3E.8_K3.4_C3.3_H3.1_A3.2_F3.1_T3.2_[A10C]], 27.6 nM. To UCUCUUUCGUGUAAAUAUAUCUCUU (ssRNA) [Id_iii_S1_P3E.8_K3.4_C3.3_[T-1G]_H3.1_A3.2_F3.1_T3.2] belongs 18.6 nM.

In turn, UCUCUUUCUACACUAUUACUUCUCUU (ssRNA) [Id_iii_S1_P4E.7_K4.3_C4.3_H4.3_A4.1_F4.1_T4.2_[G10C]] yielded a dissociation constant Kd of 2190 nM. Under UCUCUUCCUUAUAUAUAUAUCUCUU (ssRNA) [Id_iii_S1_P3E.6_K3.2_C3.3_[T-3C]_H3.2_A3.1_F3.1_T3.2] stands 364 nM; under UCUCUUUCAACACUAUAUAUCUCUU (ssRNA) [Id_iii_S1_P3E.7_K3.3_C3.3_[T-1A]_H3.3_A3.1_F3.1_T3.2], 1700 nM.

As to UCUCUUUAUUGUAAAUAUAUCUCUU (ssRNA) [Id_iii_S1_P3E.8_K3.4_C3.3_[C-2A]_H3.1_A3.2_F3.1_T3.2], the Kd was determined as 18.2 nM.

UCUCUUUGUACACUAUAUAUCUCUU (ssRNA) [Id_iii_S1_P3E.7_K3.3_C3.3_[C-2G]_H3.3_A3.1_F3.1_T3.2]: the Kd was 1.32 nM.

Molecule UCUCUUUGUGUCAUUAUCUCUU (ssRNA) [Ib_S1_P5E.1_K5.1_C5.1_H5.1_[A4G]_A5.1_[T6C]_F5.1_T5.1] gave a dissociation constant Kd of 30.7 nM. This Kd lies about 23-fold higher than the previous one. To UCUCUUUCAUGUAAAUAUAUCUCUU (ssRNA) [Id_iii_S1_P3E.8_K3.4_C3.3_[T-1A]_H3.1_A3.2_F3.1_T3.2] belongs 19.7 nM; to UCUCUUUCUUGUAUAUUAUUUCUCUU (ssRNA) [Id_iii_S1_P4E.5_K4.1_C4.3_H4.1_A4.1_F4.1_T4.2_[G10T]], 0.649 nM; to UCUCUUUUUUGUAAAAAUAUCUCUU (ssRNA) [Id_iii_S1_P3E.9_K3.5_C3.3_[C-2T]_H3.1_A3.2_F3.2_T3.2], 78.2 nM. Under UCUCUUUAUUAUAUAUAUAUCUCUU (ssRNA) [Id_iii_S1_P3E.6_K3.2_C3.3_[C-2A]_H3.2_A3.1_F3.1_T3.2] stands 373 nM. Under UCUCUUUCUACACUAUAUUUCUCUU (ssRNA) [Id_iii_S1_P3E.7_K3.3_C3.3_H3.3_A3.1_F3.1_T3.2_[A10T]] stands 2010 nM; under UCUCUUUCGUAUAUAUAUAUCUCUU (ssRNA) [Id_iii_S1_P3E.6_K3.2_C3.3_[T-1G]_H3.2_A3.1_F3.1_T3.2], 502 nM. Regarding UCUCUUUCAUGUAUAUUAGUUCUCUU (ssRNA) [Id_iii_S1_P4E.5_K4.1_C4.3_[T-1A]_H4.1_A4.1_F4.1_T4.2], binding was put at a Kd of 0.332 nM.

On to UCUCUUUCUUGUAAAUAUGUCUCUU (ssRNA) [Id_iii_S1_P3E.8_K3.4_C3.3_H3.1_A3.2_F3.1_T3.2_[A10G]], for which binding was characterised by a dissociation constant (Kd) of 28.7 nM. Against the preceding molecule, the Kd is about 86-fold higher.

UCUCUUUCUUAUAUAUUAUUUCUCUU (ssRNA) [Id_iii_S1_P4E.6_K4.2_C4.3_H4.2_A4.1_F4.1_T4.2_[G10T]] had a Kd of 15.1 nM. To UCUCUUACUUAUAUAUAUAUCUCUU (ssRNA) [Id_iii_S1_P3E.6_K3.2_C3.3_[T-3A]_H3.2_A3.1_F3.1_T3.2] belongs 113 nM; to UCUCUUUCAUGUAUUUUAGUUCUCUU (ssRNA) [Id_iii_S1_P4E.8_K4.4_C4.3_[T-1A]_H4.1_A4.2_F4.1_T4.2], 1.37 nM.

The molecule UCUCUUGCUUGUAAAUAUAUCUCUU (ssRNA) [Id_iii_S1_P3E.8_K3.4_C3.3_[T-3G]_H3.1_A3.2_F3.1_T3.2] came in with a Kd of 20.2 nM. This Kd lies about 15-fold higher than the previous one. To UCUCUUUGUGUAAUUAUCUCUU (ssRNA) [Ib_S1_P5E.1_K5.1_C5.1_H5.1_[A4G]_A5.1_[T6A]_F5.1_T5.1] belongs 27.5 nM; to UCUCUUUGUUUGAUUAUCUCUU (ssRNA) [Ib_S1_P5E.1_K5.1_C5.1_H5.1_[A4T]_A5.1_[T6G]_F5.1_T5.1], 122 nM.

Consider UCUCUUACUACACUAUAUAUCUCUU (ssRNA) [Id_iii_S1_P3E.7_K3.3_C3.3_[T-3A]_H3.3_A3.1_F3.1_T3.2], for which the Kd was 900 nM. In the case of UCUCUUCCUUGUAUAUUAGUUCUCUU (ssRNA) [Id_iii_S1_P4E.5_K4.1_C4.3_[T-3C]_H4.1_A4.1_F4.1_T4.2], binding was characterised by a dissociation constant (Kd) of 0.347 nM.

Molecule UCUCUUUUUUGUAAAUAUAUCUCUU (ssRNA) [Id_iii_S1_P3E.8_K3.4_C3.3_[C-2T]_H3.1_A3.2_F3.1_T3.2] had a Kd of 17.6 nM.

As for UCUCUUUCUUAUAUAUUAGCUCUCUU (ssRNA) [Id_iii_S1_P4E.6_K4.2_C4.3_H4.2_A4.1_F4.1_T4.2_[T11C]], the Kd was determined as 8.45 nM.

UCUCUUUUUACACUAUUAGUUCUCUU (ssRNA) [Id_iii_S1_P4E.7_K4.3_C4.3_[C-2T]_H4.3_A4.1_F4.1_T4.2] came in with a Kd of 1680 nM. This Kd lies about 200-fold higher than the previous one.

For the molecule UCUCUUUGUCUAAUUAUCUCUU (ssRNA) [Ib_S1_P5E.1_K5.1_C5.1_H5.1_[A4C]_A5.1_[T6A]_F5.1_T5.1], the Kd was 115 nM. To UCUCUUUAUACACUAUAUAUCUCUU (ssRNA) [Id_iii_S1_P3E.7_K3.3_C3.3_[C-2A]_H3.3_A3.1_F3.1_T3.2] belongs 31.6 nM; to UCUCUUCCUUGUAAAUAUAUCUCUU (ssRNA) [Id_iii_S1_P3E.8_K3.4_C3.3_[T-3C]_H3.1_A3.2_F3.1_T3.2], 16.5 nM; to UCUCUUUUUUAUAUAUAUAUCUCUU (ssRNA) [Id_iii_S1_P3E.6_K3.2_C3.3_[C-2T]_H3.2_A3.1_F3.1_T3.2], 486 nM.

As to UCUCUUACUUGUAAAUAUAUCUCUU (ssRNA) [Id_iii_S1_P3E.8_K3.4_C3.3_[T-3A]_H3.1_A3.2_F3.1_T3.2], the Kd was 25.7 nM. UCUCUUUGUUUCAUUAUCUCUU (ssRNA) [Ib_S1_P5E.1_K5.1_C5.1_H5.1_[A4T]_A5.1_[T6C]_F5.1_T5.1] showed a dissociation constant Kd of 24.4 nM.
